From patent US6531286, “Homogeneous detection of a target through nucleic acid ligand-ligand beacon interaction” (Gilead Sciences, Inc.)

Columns and labels:
[1] = target: T1, PDGF-AB (platelet-derived growth factor AB dimer) (Homo sapiens, UniProt P04085;P01127 P04085:87-211,P01127:82-190); experiment: competition; ligand beacon (SEQ:2) fluorescence decreases with protein; 160 nM aptamer, PBSM buffer 1 mM MgCl2, 4 uM tRNA, pH 7.4, 37C; also detected in plasma; FIG. 3A lists aptamer as SEQ:10; conditions: tags: R & D Systems; chain copies: heterodimer A+B (stated); predicted 3-way junction
T1 sequence (P01127 82-190, chain 2 of 2, other chains not shown): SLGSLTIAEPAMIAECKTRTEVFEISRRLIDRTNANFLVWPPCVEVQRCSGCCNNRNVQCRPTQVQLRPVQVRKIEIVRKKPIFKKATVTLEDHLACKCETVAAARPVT
Experimental: Example 5 Protein Detection Using Ligand Beacon Assays PDGF AB-Dimer The PDGF ligand beacon was used in an assay in which 160 nM PDGF nucleic acid ligand (SEQ ID NO:1) was mixed with an increasing concentration of PDGF AB-dimer in PBSM buffer [10.1 mM Na_2HPO_4, 1.8 mM KH_2PO_4, 137 mM NaCl, 2.7 mM KCl, 1 mM MgCl_2, 4 μM tRNA (pH 7.4)] for 10 minutes at 37° C. Then, ligand beacon (SEQ ID NO:2) was added to a final concentration of 160 nM and the mixture was incubated for 10 minutes at 37° C. A measurement of fluorescein emission at 530 nm was made for each concentration of PDGF using 488 nm monochromatic laser light for excitation in a 96 well format Vistra Fluorimager SI. The average value of fluorescence signals derived from duplicates was plotted against the corresponding log concentration of the concentration PDGF AB-dimer in nanomoles.

[2] = target: T1, PDGF-AB (platelet-derived growth factor …); experiment: competition; specificity control, no concentration-dependent signal reduction; 100 nM aptamer, PBSM, 4 uM tRNA, 37C; conditions: tags: R & D Systems; chain copies: heterodimer A+B (stated); predicted stem-loop
Experimental: In the example shown in FIG. 4C, TAQ-nucleic acid ligand (100 nM) was mixed with increasing concentrations of PDGF in PBSM buffer containing 4 μM tRNA at 37° C. for 10 minutes. Then 110 nM TAQ-ligand beacon was added, incubated for an additional 10 minutes at the same temperature and fluorescence was measured.

Taq DNA polymerase = Taq DNA polymerase (Thermus aquaticus, UniProt P19821 P19821:1-832); experiment: competition; ligand beacon (SEQ:4) fluorescence decreases with protein; PBSM buffer, 4 uM tRNA, 37C; FIG. 3A lists aptamer as SEQ:9; conditions: tags: Roche Molecular Systems; predicted stem-loop
Sequence of Taq DNA polymerase (P19821 whole entry, one chain of several): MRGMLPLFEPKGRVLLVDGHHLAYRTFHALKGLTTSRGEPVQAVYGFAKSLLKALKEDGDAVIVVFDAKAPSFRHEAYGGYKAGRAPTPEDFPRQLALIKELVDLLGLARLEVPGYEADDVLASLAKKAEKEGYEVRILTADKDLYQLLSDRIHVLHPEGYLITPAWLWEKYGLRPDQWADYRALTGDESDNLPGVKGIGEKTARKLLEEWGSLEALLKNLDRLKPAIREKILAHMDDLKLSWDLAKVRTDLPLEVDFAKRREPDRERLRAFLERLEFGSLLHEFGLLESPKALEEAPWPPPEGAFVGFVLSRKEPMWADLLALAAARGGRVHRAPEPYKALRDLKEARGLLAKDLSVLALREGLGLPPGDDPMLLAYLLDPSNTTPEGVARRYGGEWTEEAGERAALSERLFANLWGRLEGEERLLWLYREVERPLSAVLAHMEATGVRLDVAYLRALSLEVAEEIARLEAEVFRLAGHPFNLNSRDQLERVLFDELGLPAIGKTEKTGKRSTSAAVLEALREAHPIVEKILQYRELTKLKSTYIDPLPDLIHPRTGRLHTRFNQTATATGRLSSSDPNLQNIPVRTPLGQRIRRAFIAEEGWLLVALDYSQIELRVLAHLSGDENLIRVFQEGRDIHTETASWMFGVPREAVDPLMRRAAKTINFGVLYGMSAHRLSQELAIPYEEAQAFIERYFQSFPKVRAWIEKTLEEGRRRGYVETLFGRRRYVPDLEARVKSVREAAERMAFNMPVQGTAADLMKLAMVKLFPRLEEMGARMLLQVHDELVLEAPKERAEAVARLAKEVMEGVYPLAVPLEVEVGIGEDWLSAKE
Experimental: (§1) Open circles represent the fluorescence signal obtained when the 100 nM PDGF aptamer was first incubated with 100 nM PDGF ligand beacon before the protein was added. Closed circles indicate the signal generated when 100 nM PDGF ligand beacon was mixed with increasing concentration of the PDGF AB-dimer in the absence of the aptamer. TAQ DNA Polymerase An assay using constant concentrations of TAQ nucleic acid ligand and TAQ ligand beacon, and varying concentrations of TAQ DNA polymerase, was carried out as described above. Again, the fluorescence emission decreased with increasing amounts of the ligand Taq Polymerase. Human L-Selectin A fixed concentration of L-selectin aptamer was mixed with increasing concentration of human L-selectin in SHMCK buffer [20 mM HEPES, 120 mM NaCl, 5 mM KCl, 1 mM MgCl_2, 1 mM CaCl_2, 4 µM tRNA, (pH 7.4)] and incubated for 10 minutes at 37° C. Then, L-selectin ligand beacon was added to a final concentration equivalent to that of the aptamer, incubated additional 10 minutes at 37° C. and fluorescence was measured. The results are depicted in FIGS. 7A and B. It can be seen that the dynamic range of the assay can be easily varied by changing the concentration of the nucleic acid ligand/ligand beacon pair. […] The fluorescence signal was then measured as described above. […]

P-selectin [3] = target: T2, P-selectin (Homo sapiens, UniProt P16109 P16109:42-771); experiment: competition; specificity control, little or no fluorescence change; 200 nM aptamer, SHMCK, 4 uM tRNA, 37C; conditions: tags: R & D Systems
T2 sequence (P16109 42-771, one chain of several): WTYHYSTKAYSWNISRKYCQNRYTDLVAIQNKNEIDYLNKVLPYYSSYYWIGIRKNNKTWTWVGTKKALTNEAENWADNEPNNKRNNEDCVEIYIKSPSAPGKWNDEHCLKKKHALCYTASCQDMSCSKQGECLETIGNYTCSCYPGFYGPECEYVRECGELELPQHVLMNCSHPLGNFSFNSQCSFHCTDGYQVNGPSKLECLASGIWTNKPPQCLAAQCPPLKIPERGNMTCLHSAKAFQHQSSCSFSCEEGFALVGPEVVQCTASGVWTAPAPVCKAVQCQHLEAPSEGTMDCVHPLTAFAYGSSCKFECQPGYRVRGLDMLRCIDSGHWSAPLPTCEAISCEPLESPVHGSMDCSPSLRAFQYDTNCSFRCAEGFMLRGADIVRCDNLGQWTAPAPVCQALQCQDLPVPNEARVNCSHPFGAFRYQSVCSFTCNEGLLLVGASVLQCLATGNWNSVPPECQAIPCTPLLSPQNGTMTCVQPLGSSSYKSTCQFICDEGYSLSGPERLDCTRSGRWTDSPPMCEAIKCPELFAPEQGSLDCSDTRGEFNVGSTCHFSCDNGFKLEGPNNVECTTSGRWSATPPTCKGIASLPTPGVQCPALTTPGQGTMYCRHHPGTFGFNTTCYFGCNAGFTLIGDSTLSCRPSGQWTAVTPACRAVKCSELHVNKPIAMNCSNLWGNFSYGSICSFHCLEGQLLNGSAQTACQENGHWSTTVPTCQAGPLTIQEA
Experimental: (§2) Specifically, L-Selectin nucleic acid ligand (200 nM) was mixed with increasing concentrations of P-Selectin in SHMCK buffer containing 4 µM tRNA. The mixture was incubated at 37° C. for 15 minutes. Then 220 nM L-Selectin ligand beacon was added and the mixture was incubated an additional 10 minutes at the same temperature and fluorescence was measured (FIG. 8C; (•)). P-Selectin nucleic acid ligand (200 nM) was mixed with increasing concentrations of L-Selectin in SHMCK buffer containing 4 µM tRNA at 37° C. for 15 minutes. Then 220 nM P-Selectin ligand beacon was added, incubated for an additional 10 minutes at the same temperature and fluorescence was measured (FIG. 8C; (○)).

L-selectin [4] = target: T3, L-selectin (Homo sapiens, UniProt P14151 P14151:39-332); experiment: competition; ligand beacon (SEQ:6); 200 or 800 nM aptamer, SHMCK buffer 1 mM MgCl2 1 mM CaCl2, 4 uM tRNA, pH 7.4, 37C; also detected in plasma; conditions: tags: R & D Systems
T3 sequence: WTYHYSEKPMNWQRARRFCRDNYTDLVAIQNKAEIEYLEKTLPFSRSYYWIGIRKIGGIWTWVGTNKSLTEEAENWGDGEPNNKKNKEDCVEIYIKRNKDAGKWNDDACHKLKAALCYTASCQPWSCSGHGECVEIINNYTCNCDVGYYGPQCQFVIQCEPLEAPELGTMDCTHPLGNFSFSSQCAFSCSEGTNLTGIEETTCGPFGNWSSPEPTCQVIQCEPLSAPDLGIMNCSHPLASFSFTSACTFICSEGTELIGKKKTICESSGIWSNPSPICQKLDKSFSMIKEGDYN
Experimental: as §1

P-selectin [5] = target: T2, P-selectin; experiment: competition; ligand beacon (SEQ:8); 200 nM aptamer, SHMCK buffer 1 mM MgCl2 1 mM CaCl2, 4 uM tRNA, pH 7.4, 37C; also detected in plasma; FIG. 3A lists aptamer as SEQ:12; conditions: tags: R & D Systems
Experimental: as §1, with “Human L-Selectin A fixed concentration of L-selectin aptamer was mixed with increasing concentration of human L-selectin in SHMCK buffer [20 mM HEPES, 120 mM NaCl, 5 mM KCl, 1 mM MgCl_2, 1 mM CaCl_2, 4 µM tRNA, (pH 7.4)] and incubated for 10 minutes at 37° C.” left out, “measured.” for “measured. The results are depicted in FIGS. 7A and B. It can be seen that the dynamic range of the assay can be easily varied by changing the concentration of the nucleic acid ligand/ligand beacon pair.”
P-selectin aptamer (200 nM) was mixed with increasing concentration of human P-selectin in SHMCK buffer [20 mM HEPES, 120 mM NaCl, 5 mM KCl, 1 mM MgCl_2, 1 mM CaCl_2, 4µM tRNA, (pH 7.4)] and incubated for 10 minutes at 37° C. Then, P-selectin ligand beacon was added to a final concentration of 200 nM, incubated for additional 10 minutes at 37° C. and fluorescence was measured. […]

L-selectin [6] = target: T3, L-selectin; experiment: competition; specificity control, little or no fluorescence change; 200 nM aptamer, SHMCK, 4 uM tRNA, 37C; conditions: tags: R & D Systems
Experimental: as §2

B1: PDGF aptamer (ssDNA)
DNA: TGGGAGGGCGCGTTCTTCGTGGTTACTTTTAGTCCCGT
B1: binds [1].

B2: Taq aptamer (ssDNA)
DNA: TGGCGGAGCGATCATCTCAGAGCATTCTTAGCGTTTTGTTCTTGTGTATGA
B2: no binding [2]; binds (Taq DNA polymerase).

B3: L-selectin aptamer (ssDNA)
DNA: TAGCCAAGGTAACCAGTACAAGGTGCTAAACGTAATGGCTTCGGCTTAC
B3: no binding (P-selectin [3]); binds (L-selectin [4]).

B4: P-selectin aptamer (ssRNA)
RNA: CUCAACGAGCCAGGAACAUCGAGGUCAGCAAACGCGAG
modifications: 2'-F at all pyrimidines
B4: binds (P-selectin [5]); no binding (L-selectin [6]).
